According to patent US20250011363A1, “OPTIMIZED SHORTENED PEPTIDE THAT BINDS TO ACETYLCHOLINE RECEPTOR, AND USE THEREOF” (SKINMED CO., LTD., priority 2021, published 2025):

B1: 6mer-1-1050 (peptide)
peptide: KKMEDR
B2: 6mer-1-1047 (peptide)
peptide: RKATDK
B3: 6mer-1-1046 (peptide)
peptide: RKDPHR
B4: 6mer-1-1014 (peptide)
peptide: KKNAWR
B5: 6mer-1-1009 (peptide)
peptide: RKMSKK
B6: 6mer-1-1027 (peptide)
peptide: KKPWHK
B7: 6mer-1-1055 (peptide)
peptide: KRCNDK
B8: 6mer-1-1053 (peptide)
peptide: RKYTPK
B9: 6mer-1-1038 (peptide)
peptide: RRKKIR
B10: 6mer-1-1057 (peptide)
peptide: KRKPVR
B11: 6mer-2-617 (peptide)
peptide: RCNGRR
B12: 6mer-1-1033 (peptide)
peptide: KRHMVK
B13: 6mer-1-1010 (peptide)
peptide: KKPKHK
B14: 6mer-1-1042 (peptide)
peptide: KKITAR
B15: 6mer-1-1013 (peptide)
peptide: KKTTNK
B16: 6mer-2-601 (peptide)
peptide: KNSHKK
B17: 6mer-2-607 (peptide)
peptide: KKWVKR
B18: 6mer-1-1034 (peptide)
peptide: KKASDR
B19: 6mer-2-609 (peptide)
peptide: RDSDRR
B20: 6mer-2-608 (peptide)
peptide: RCNHKK
B21: 6mer-1-1019 (peptide)
peptide: KRDAWR
B22: 6mer-2-613 (peptide)
peptide: KAANRR
B23: 6mer-1-1060 (peptide)
peptide: KRYNVR
B24: 6mer-1-1011 (peptide)
peptide: RKKPEK
B25: 6mer-1-1059 (peptide)
peptide: RRETVK
B26: 6mer-1-1030 (peptide)
peptide: KKFCFR
B27: 6mer-1-1056 (peptide)
peptide: RRNTAK
B28: 6mer-1-1018 (peptide)
peptide: KKTAFK
B29: 6mer-2-605 (peptide)
peptide: KNCGKK
B30: 6mer-1-1054 (peptide)
peptide: RRMKVK
B31: 6mer-2-612 (peptide)
peptide: RDCVRK
B32: 6mer-1-1012 (peptide)
peptide: RRAWVR
B33: 6mer-1-1006 (peptide)
peptide: KKDKIK
B34: 6mer-1-1017 (peptide)
peptide: KRANMK
B35: 6mer-1-1020 (peptide)
peptide: KKMEAK
B36: 6mer-1-1022 (peptide)
peptide: RKDTVR
B37: 6mer-1-1045 (peptide)
peptide: KKTPGR
B38: 6mer-2-611 (peptide)
peptide: RIKMRR
B39: 6mer-1-1063 (peptide)
peptide: KKIDHK
B40: 6mer-1-1007 (peptide)
peptide: RKPTDR
B41: 6mer-2-618 (peptide)
peptide: KHHKKR
B42: 6mer-2-606 (peptide)
peptide: RKPFRR
B43: 6mer-1-1051 (peptide)
peptide: KKKSFK
B44: 6mer-1-1024 (peptide)
peptide: RKTEIR
B45: 6mer-2-616 (peptide)
peptide: REPHRK
B46: 6mer-1-1015 (peptide)
peptide: KREEWR
B47: 6mer-1-1035 (peptide)
peptide: RRCHHR
B48: 6mer-1-1016 (peptide)
peptide: KRHTHR
B49: 6mer-2-602 (peptide)
peptide: RNTPKR
B50: 6mer-1-1061 (peptide)
peptide: RRISIR
B51: 6mer-1-1062 (peptide)
peptide: RRICMR
B52: 6mer-1-1048 (peptide)
peptide: RRCMMK
B53: 6mer-1-1028 (peptide)
peptide: RRHCWR
B54: 6mer-1-1064 (peptide)
peptide: RKPTAK
B55: 6mer-1-1036 (peptide)
peptide: KKITFR
B56: 6mer-1-1041 (peptide)
peptide: RKEHGK
B57: 6mer-1-1031 (peptide)
peptide: RKDTHK
B58: 6mer-1-1043 (peptide)
peptide: KRAAHR
B59: 6mer-1-1037 (peptide)
peptide: RRKNNR
B60: 6mer-2-614 (peptide)
peptide: KAWIRR
B61: 6mer-1-1023 (peptide)
peptide: KRIMHK
B62: 6mer-1-1021 (peptide)
peptide: KKHDIK
B63: 6mer-1-1005 (peptide)
peptide: RKPPDR
B64: 6mer-1-1049 (peptide)
peptide: KKDHKK
B65: 6mer-2-610 (peptide)
peptide: RKNPKR
B66: 6mer-1-1039 (peptide)
peptide: KRADIK
B67: 6mer-1-1008 (peptide)
peptide: RKPWAR
B68: 6mer-1-1025 (peptide)
peptide: KRFAKR
B69: 6mer-1-1058 (peptide)
peptide: KRFPWR
B70: 6mer-2-604 (peptide)
peptide: KEPIRK
B71: 6mer-1-1032 (peptide)
peptide: KKTSMR
B72: 6mer-1-1040 (peptide)
peptide: KRIEFR
B73: 6mer-1-1029 (peptide)
peptide: RRCMAK
B74: 6mer-1-1026 (peptide)
peptide: RKKCER
B75: 6mer-1-1044 (peptide)
peptide: KKHHIR
B76: 6mer-2-603 (peptide)
peptide: KFHARR
B77: 6mer-1-1052 (peptide)
peptide: KRHWIR
B78: 6mer-2-615 (peptide)
peptide: KDNGRK

target: acetylcholine receptor; assay: SPR, AchR immobilised on CM5 chip, peptide 10 uM

Compared with B1, B2 is lower in Binding affinity (RU): 38 RU for the first, 30 RU for the second.

Compared with B3, B4 is lower in Binding affinity (RU): 38 RU for the first, 25 RU for the second.

Going from B5 to B6, the Binding affinity (RU) falls from 29 RU to 22 RU.

Compared with B7, B8 is lower in Binding affinity (RU): 40 RU for the first, 27 RU for the second.

Going from B9 to B10, the Binding affinity (RU) rises from 21 RU to 43 RU.

Compared with B11, B12 is lower in Binding affinity (RU): 32 RU for the first, 30 RU for the second.

Going from B13 to B14, the Binding affinity (RU) rises from 33 RU to 40 RU.

First: B15
Second: B16
The Binding affinity (RU) of the first is higher: 29 RU for the first, 25 RU for the second.

First: B17
Second: B18
The Binding affinity (RU) of the first is higher: 31 RU for the first, 24 RU for the second.

First: B19
Second: B20
The Binding affinity (RU) of the first is lower: 24 RU for the first, 32 RU for the second.

Going from B21 to B22, the Binding affinity (RU) falls from 37 RU to 18 RU.

Going from B23 to B24, the Binding affinity (RU) rises from 21 RU to 35 RU.

Compared with B25, B26 is lower in Binding affinity (RU): 39 RU for the first, 30 RU for the second.

First: B27
Second: B28
The Binding affinity (RU) of the first is lower: 27 RU for the first, 28 RU for the second.

First: B29
Second: B30
The Binding affinity (RU) of the first is lower: 17 RU for the first, 37 RU for the second.

First: B31
Second: B32
The Binding affinity (RU) of the first is lower: 17 RU for the first, 35 RU for the second.

First: B33
Second: B34
The Binding affinity (RU) of the first is lower: 25 RU for the first, 37 RU for the second.

First: B35
Second: B36
The Binding affinity (RU) of the first is higher: 38 RU for the first, 22 RU for the second.

Compared with B37, B38 is lower in Binding affinity (RU): 27 RU for the first, 22 RU for the second.

Compared with B39, B40 is higher in Binding affinity (RU): 25 RU for the first, 39 RU for the second.

Going from B41 to B42, the Binding affinity (RU) rises from 12 RU to 15 RU.

Compared with B43, B44 is lower in Binding affinity (RU): 43 RU for the first, 36 RU for the second.

B45 and B46 are the same in Binding affinity (RU): 26 RU for the first, 26 RU for the second.

Compared with B47, B48 is lower in Binding affinity (RU): 34 RU for the first, 21 RU for the second.

Compared with B49, B50 is higher in Binding affinity (RU): 24 RU for the first, 41 RU for the second.

First: B51
Second: B52
The Binding affinity (RU) of the first is lower: 27 RU for the first, 36 RU for the second.

Compared with B53, B54 is higher in Binding affinity (RU): 36 RU for the first, 41 RU for the second.

Compared with B55, B56 is higher in Binding affinity (RU): 21 RU for the first, 23 RU for the second.

Going from B57 to B58, the Binding affinity (RU) falls from 38 RU to 30 RU.

Compared with B59, B60 is lower in Binding affinity (RU): 36 RU for the first, 19 RU for the second.

Going from B61 to B62, the Binding affinity (RU) rises from 39 RU to 41 RU.

Compared with B63, B64 is higher in Binding affinity (RU): 26 RU for the first, 31 RU for the second.

Compared with B65, B66 is higher in Binding affinity (RU): 32 RU for the first, 40 RU for the second.

Compared with B67, B68 is higher in Binding affinity (RU): 21 RU for the first, 33 RU for the second.

Going from B69 to B70, the Binding affinity (RU) falls from 21 RU to 16 RU.

Going from B71 to B72, the Binding affinity (RU) rises from 27 RU to 28 RU.

First: B73
Second: B74
The Binding affinity (RU) of the first is higher: 40 RU for the first, 30 RU for the second.

Going from B75 to B76, the Binding affinity (RU) rises from 24 RU to 32 RU.

Going from B77 to B78, the Binding affinity (RU) falls from 33 RU to 27 RU.
